# In US20160102129A1 (Novo Nordisk, published 2016):
# *1 amine or outer side, *2 acyl side, *3 side chain or, on linkers, in order; H or OH if unused. Where no end group is shown, it is not given here. Side-chain parts run from the residue outwards. [ ]: non-standard residue; d: D form. The star is where a group is joined. C20 diacid = O=C(O)CCCCCCCCCCCCCCCCCCC(=O)*; C18 diacid = O=C(O)CCCCCCCCCCCCCCCCC(=O)*; C16 diacid = O=C(O)CCCCCCCCCCCCCCC(=O)*; γGlu = O=C(O)[C@H](CCC(=O)[*:2])N[*:1]; C14 diacid = O=C(O)CCCCCCCCCCCCC(=O)*; Desaminohistidyl = O=C(CCc1c[nH]cn1)*; Ac4c = NC1(C(=O)O)CCC1; AEEA = NCCOCCOCC(=O)O; Aib = CC(C)(N)C(=O)O
# B1: N^ε34-[(4S)-4-carboxy-4-[[(4S)-4-carboxy-4-[[(4S)-4-carboxy-4-[[(4S)-4-carboxy-4-(17-carboxyheptadecanoylamino)butanoyl]amino]butanoyl]amino]butanoyl]amino]buta … (peptide)
# peptide: [Desaminohistidyl][Aib]HGTFTSDVSKYLEEQAAREFIAWLLK([γGlu-γGlu-γGlu-γGlu-C18 diacid])T-NH2
# SMILES: CC[C@H](C)[C@H](NC(=O)[C@H](Cc1ccccc1)NC(=O)[C@H](CCC(=O)O)NC(=O)[C@H](CCCNC(=N)N)NC(=O)[C@H](C)NC(=O)[C@H](C)NC(=O)[C@H](CCC(N)=O)NC(=O)[C@H](CCC(=O)O)NC(=O)[C@H](CCC(=O)O)NC(=O)[C@H](CC(C)C)NC(=O)[C@H](Cc1ccc(O)cc1)NC(=O)[C@H](CCCCN)NC(=O)[C@H](CO)NC(=O)[C@@H](NC(=O)[C@H](CC(=O)O)NC(=O)[C@H](CO)NC(=O)[C@@H](NC(=O)[C@H](Cc1ccccc1)NC(=O)[C@@H](NC(=O)CNC(=O)[C@H](Cc1c[nH]cn1)NC(=O)C(C)(C)NC(=O)CCc1c[nH]cn1)[C@@H](C)O)[C@@H](C)O)C(C)C)C(=O)N[C@@H](C)C(=O)N[C@@H](Cc1c[nH]c2ccccc12)C(=O)N[C@@H](CC(C)C)C(=O)N[C@@H](CC(C)C)C(=O)N[C@@H](CCCCNC(=O)CC[C@H](NC(=O)CC[C@H](NC(=O)CC[C@H](NC(=O)CC[C@H](NC(=O)CCCCCCCCCCCCCCCCC(=O)O)C(=O)O)C(=O)O)C(=O)O)C(=O)O)C(=O)N[C@H](C(N)=O)[C@@H](C)O
# B2: N^ε34-[2-[[(2S)-2-[[(4S)-4-carboxy-4-[[(4S)-4-carboxy-4-(17-carboxyheptadecanoylamino)butanoyl]amino]butanoyl]amino]-3-hydroxypropanoyl]amino]acetyl]-[Imp7,Aib8 … (peptide)
# peptide: [Desaminohistidyl][Aib]HGTFTSDVSKYLEEQAAREFIAWLLK([Gly-Ser-γGlu-γGlu-C18 diacid])T-NH2
# SMILES: CC[C@H](C)[C@H](NC(=O)[C@H](Cc1ccccc1)NC(=O)[C@H](CCC(=O)O)NC(=O)[C@H](CCCNC(=N)N)NC(=O)[C@H](C)NC(=O)[C@H](C)NC(=O)[C@H](CCC(N)=O)NC(=O)[C@H](CCC(=O)O)NC(=O)[C@H](CCC(=O)O)NC(=O)[C@H](CC(C)C)NC(=O)[C@H](Cc1ccc(O)cc1)NC(=O)[C@H](CCCCN)NC(=O)[C@H](CO)NC(=O)[C@@H](NC(=O)[C@H](CC(=O)O)NC(=O)[C@H](CO)NC(=O)[C@@H](NC(=O)[C@H](Cc1ccccc1)NC(=O)[C@@H](NC(=O)CNC(=O)[C@H](Cc1c[nH]cn1)NC(=O)C(C)(C)NC(=O)CCc1c[nH]cn1)[C@@H](C)O)[C@@H](C)O)C(C)C)C(=O)N[C@@H](C)C(=O)N[C@@H](Cc1c[nH]c2ccccc12)C(=O)N[C@@H](CC(C)C)C(=O)N[C@@H](CC(C)C)C(=O)N[C@@H](CCCCNC(=O)CNC(=O)[C@H](CO)NC(=O)CC[C@H](NC(=O)CC[C@H](NC(=O)CCCCCCCCCCCCCCCCC(=O)O)C(=O)O)C(=O)O)C(=O)N[C@H](C(N)=O)[C@@H](C)O
# Molecular target: T1, human glucagon receptor (human, UniProt P47871 26-477)
# T1 construct: whole, on cells; reporter assay on whole cells
# Test: SPA displacement of [125I]-glucagon from human glucagon receptor BHK membranes
# T1 sequence (P47871 26-477): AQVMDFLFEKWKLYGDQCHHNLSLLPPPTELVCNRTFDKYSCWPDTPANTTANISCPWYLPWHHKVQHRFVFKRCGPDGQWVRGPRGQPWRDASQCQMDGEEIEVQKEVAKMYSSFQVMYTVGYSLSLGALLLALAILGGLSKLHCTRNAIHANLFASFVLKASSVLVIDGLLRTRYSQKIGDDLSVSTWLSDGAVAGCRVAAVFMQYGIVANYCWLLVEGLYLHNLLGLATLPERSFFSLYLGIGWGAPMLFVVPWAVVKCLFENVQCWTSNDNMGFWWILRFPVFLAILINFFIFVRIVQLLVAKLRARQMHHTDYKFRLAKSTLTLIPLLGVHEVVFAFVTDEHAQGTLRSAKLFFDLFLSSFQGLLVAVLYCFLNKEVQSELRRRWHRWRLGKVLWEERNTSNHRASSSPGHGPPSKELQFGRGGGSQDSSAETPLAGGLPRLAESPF
row,Binder,IC50
1,B1,4.2 nM
2,B2,4.3 nM
3,[Desaminohistidyl][Aib]HGTFTSDVSKYLEEQAAREFIAWLLK([Ado-Ado-γGlu-γGlu-C20 diacid])T-NH2,10.1 nM
4,[Desaminohistidyl]GHGTFTSDVSRYLEEQAAREFIAWLLK([Gly-Ser-Glu-Gly-Ser-γGlu-γGlu-C18 diacid])T-NH2,9.6 nM
5,[Desaminohistidyl][Aib]HGTFTSDVSKYLEEQAAREFIAWLLK([Ado-Ado-γGlu-γGlu-C16 diacid])T-NH2,4 nM
6,[Desaminohistidyl][Aib]HGTFTSDVSKYLEEQAAREFIAWLLK([Ado-Ado-γGlu-γGlu-C18 diacid])T-NH2,4.3 nM
7,[Desaminohistidyl][Aib]HGTFTSDVSKYLEEQAAREFIAWLLK([Ado-Ado-γGlu-γGlu-C14 diacid])T-NH2,3.7 nM
8,[Desaminohistidyl][Aib]HGTFTSDVSRYLEGRAAREFIAWLLK([γGlu-γGlu-AEEA-γGlu-γGlu-C18 diacid])GSG,11.4 nM
9,[Desaminohistidyl][Ac4c]HGTFTSDVSKYLEEQAAREFIAWLLK([Gly-Ser-Glu-Gly-Ser-γGlu-γGlu-C18 diacid])T-NH2,4.1 nM

# Molecular target: T1, human glucagon receptor
# Test: cell-based or functional assay
row,Binder,"EC50 GlucagonR [pM], CRE luciferase reporter gene assay"
1,B1,44 pM
2,B2,45 pM
3,[Desaminohistidyl][Aib]HGTFTSDVSKYLEEQAAREFIAWLLK([Ado-Ado-γGlu-γGlu-C20 diacid])T-NH2,917 pM
4,[Desaminohistidyl]GHGTFTSDVSRYLEEQAAREFIAWLLK([Gly-Ser-Glu-Gly-Ser-γGlu-γGlu-C18 diacid])T-NH2,459 pM
5,[Desaminohistidyl][Aib]HGTFTSDVSKYLEEQAAREFIAWLLK([Ado-Ado-γGlu-γGlu-C16 diacid])T-NH2,46.1 pM
6,[Desaminohistidyl][Aib]HGTFTSDVSKYLEEQAAREFIAWLLK([Ado-Ado-γGlu-γGlu-C18 diacid])T-NH2,120 pM
7,[Desaminohistidyl][Aib]HGTFTSDVSKYLEEQAAREFIAWLLK([Ado-Ado-γGlu-γGlu-C14 diacid])T-NH2,52.6 pM
8,[Desaminohistidyl][Aib]HGTFTSDVSRYLEGRAAREFIAWLLK([γGlu-γGlu-AEEA-γGlu-γGlu-C18 diacid])GSG,158 pM
9,[Desaminohistidyl][Ac4c]HGTFTSDVSKYLEEQAAREFIAWLLK([Gly-Ser-Glu-Gly-Ser-γGlu-γGlu-C18 diacid])T-NH2,40 pM

# Molecular target: T2, human GLP-1 receptor (human, UniProt P43220 24-463)
# Test: cell-based or functional assay
row,Binder,"EC50 GLP-1R [pM], CRE luciferase reporter gene assay"
1,B1,7 pM
2,B2,7 pM
3,[Desaminohistidyl][Aib]HGTFTSDVSKYLEEQAAREFIAWLLK([Ado-Ado-γGlu-γGlu-C20 diacid])T-NH2,62.9 pM
4,[Desaminohistidyl]GHGTFTSDVSRYLEEQAAREFIAWLLK([Gly-Ser-Glu-Gly-Ser-γGlu-γGlu-C18 diacid])T-NH2,8 pM
5,[Desaminohistidyl][Aib]HGTFTSDVSKYLEEQAAREFIAWLLK([Ado-Ado-γGlu-γGlu-C16 diacid])T-NH2,60.7 pM
6,[Desaminohistidyl][Aib]HGTFTSDVSKYLEEQAAREFIAWLLK([Ado-Ado-γGlu-γGlu-C18 diacid])T-NH2,5.2 pM
7,[Desaminohistidyl][Aib]HGTFTSDVSKYLEEQAAREFIAWLLK([Ado-Ado-γGlu-γGlu-C14 diacid])T-NH2,12 pM
8,[Desaminohistidyl][Aib]HGTFTSDVSRYLEGRAAREFIAWLLK([γGlu-γGlu-AEEA-γGlu-γGlu-C18 diacid])GSG,6 pM
9,[Desaminohistidyl][Ac4c]HGTFTSDVSKYLEEQAAREFIAWLLK([Gly-Ser-Glu-Gly-Ser-γGlu-γGlu-C18 diacid])T-NH2,5 pM

# Molecular target: T2, human GLP-1 receptor
# Test: SPA displacement of [125I]GLP-1(7-36)NH2 from hGLP-1R BHK membranes
row,Binder,IC50
1,B1,0.3 nM
2,B2,0.2 nM
3,[Desaminohistidyl][Aib]HGTFTSDVSKYLEEQAAREFIAWLLK([Ado-Ado-γGlu-γGlu-C20 diacid])T-NH2,0.4 nM
4,[Desaminohistidyl]GHGTFTSDVSRYLEEQAAREFIAWLLK([Gly-Ser-Glu-Gly-Ser-γGlu-γGlu-C18 diacid])T-NH2,3.2 nM
5,[Desaminohistidyl][Aib]HGTFTSDVSKYLEEQAAREFIAWLLK([Ado-Ado-γGlu-γGlu-C16 diacid])T-NH2,1.3 nM
6,[Desaminohistidyl][Aib]HGTFTSDVSKYLEEQAAREFIAWLLK([Ado-Ado-γGlu-γGlu-C18 diacid])T-NH2,0.5 nM
7,[Desaminohistidyl][Aib]HGTFTSDVSKYLEEQAAREFIAWLLK([Ado-Ado-γGlu-γGlu-C14 diacid])T-NH2,1.5 nM
8,[Desaminohistidyl][Aib]HGTFTSDVSRYLEGRAAREFIAWLLK([γGlu-γGlu-AEEA-γGlu-γGlu-C18 diacid])GSG,1.7 nM
9,[Desaminohistidyl][Ac4c]HGTFTSDVSKYLEEQAAREFIAWLLK([Gly-Ser-Glu-Gly-Ser-γGlu-γGlu-C18 diacid])T-NH2,0.1 nM
